Reference: US20240052061A1 (published 2024)

T1: human ecto-nucleoside triphosphate diphosphohydrolase-3 (NTPDase3) (human, UniProt O75355 1-529)
T1 chain: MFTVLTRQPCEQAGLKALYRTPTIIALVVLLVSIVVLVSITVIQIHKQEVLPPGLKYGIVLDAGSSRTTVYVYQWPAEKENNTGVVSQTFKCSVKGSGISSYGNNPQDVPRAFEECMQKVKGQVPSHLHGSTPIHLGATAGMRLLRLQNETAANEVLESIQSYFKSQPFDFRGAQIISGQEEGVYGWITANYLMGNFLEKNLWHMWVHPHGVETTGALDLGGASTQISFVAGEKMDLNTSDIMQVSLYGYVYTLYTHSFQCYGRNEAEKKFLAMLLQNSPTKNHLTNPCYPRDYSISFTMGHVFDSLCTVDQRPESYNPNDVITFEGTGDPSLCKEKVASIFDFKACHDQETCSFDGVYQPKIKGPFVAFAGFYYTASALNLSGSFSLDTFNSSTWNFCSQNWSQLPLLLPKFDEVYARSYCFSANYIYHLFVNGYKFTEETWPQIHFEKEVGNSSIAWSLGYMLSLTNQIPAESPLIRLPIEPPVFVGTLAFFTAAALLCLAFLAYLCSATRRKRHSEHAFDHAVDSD


Columns and labels:
[1] = target: T1, human ecto-nucleoside triphosphate …; test: flow cytometry; HEK293T-hENTPD3 cells
[2] = target: T1, human ecto-nucleoside triphosphate …; test: flow cytometry; CHO-hENTPD3 cells, 20 min at 4°C
[3] = target: T1, human ecto-nucleoside triphosphate …; test: flow cytometry; CHO-hENTPD3 cells
[4] = target: T1, human ecto-nucleoside triphosphate …; test: flow cytometry; COS7-hENTPD3 cells
[5] = target: T1, human ecto-nucleoside triphosphate …; test: flow cytometry; COS7-hENTPD3 cells
[6] = target: T1, human ecto-nucleoside triphosphate …; test: flow cytometry; RT4 cells
[7] = target: T1, human ecto-nucleoside triphosphate …; test: flow cytometry; CHO-hENTPD3 cells
[8] = target: T1, human ecto-nucleoside triphosphate …; test: flow cytometry; HEK293T-hENTPD3 cells
[9] = target: T1, human ecto-nucleoside triphosphate …; test: flow cytometry; CHO-hENTPD3 cells, 2h at 37°C
r3E9 = test: flow cytometry; RT4 cells; rabbit mAb
[10] = target: T1, human ecto-nucleoside triphosphate …; test: flow cytometry; HEK293T-hENTPD3 cells
[11] = target: T1, human ecto-nucleoside triphosphate …; test: flow cytometry; COS7-hENTPD3 cells
[12] = target: T1, human ecto-nucleoside triphosphate …; test: flow cytometry; CHO-hENTPD3 cells
[13] = target: T1, human ecto-nucleoside triphosphate …; test: flow cytometry; CHO-hENTPD3 cells
[14] = target: T1, human ecto-nucleoside triphosphate …; test: flow cytometry; COS7-hENTPD3 cells

Row | Binder | Kd [2] | Kd [4] | Kd [7] | Kd [8] | Kd [9] | Kd [10] | Kd [11] | Kd [12] | Kd [13] | Kd [14] | also measured
1 | 8E1 Hu/Ra (antibody, V domains shown) VH: QSVEESGGRLVTPGTPLTLTCTVSGFSLSSYAMGWVRQAPGKGLEFIGIISYSGNTYYASWAKGRFPISKTSSTTVDLKMTSPTTEDTANYFCARARYGGYSTNSYYLNIWGPGTLVTVSS VL: DVVMTQTPASVEAAVGGTVTINCQASENIYRVLAWYQQKPGQRPKLLIYGASNLESGVPSRFKGSGSGTDYTLTISDLECDDAATYYCQGVVYNSDDSAFGGGTEVVVKG | 1.82 nM | 0.54 nM | 1.59 nM | 0.33 nM | 1.02 nM | – | – | – | – | – | Kd [1]: 2.76 nM; Kd [3]: 0.43 nM; Kd [5]: 0.31 nM; Kd [6]: 0.06 nM
2 | hENTPD3 (RT4 cells) (enzyme) MFTVLTRQPCEQAGLKALYRTPTIIALVVLLVSIVVLVSITVIQIHKQEVLPPGLKYGIVLDAGSSRTTVYVYQWPAEKENNTGVVSQTFKCSVKGSGISSYGNNPQDVPRAFEECMQKVKGQVPSHLHGSTPIHLGATAGMRLLRLQNETAANEVLESIQSYFKSQPFDFRGAQIISGQEEGVYGWITANYLMGNFLEKNLWHMWVHPHGVETTGALDLGGASTQISFVAGEKMDLNTSDIMQVSLYGYVYTLYTHSFQCYGRNEAEKKFLAMLLQNSPTKNHLTNPCYPRDYSISFTMGHVFDSLCTVDQRPESYNPNDVITFEGTGDPSLCKEKVASIFDFKACHDQETCSFDGVYQPKIKGPFVAFAGFYYTASALNLSGSFSLDTFNSSTWNFCSQNWSQLPLLLPKFDEVYARSYCFSANYIYHLFVNGYKFTEETWPQIHFEKEVGNSSIAWSLGYMLSLTNQIPAESPLIRLPIEPPVFVGTLAFFTAAALLCLAFLAYLCSATRRKRHSEHAFDHAVDSD | – | – | – | – | – | – | – | – | – | – | Kd (r3E9): 0.22 nM
3 | 38D5 Hu/Ra (antibody, V domains shown) VH: QELVESGGGLVQPGGSLKLSCKASGIDFNNYGISWVRQAPGKGLEWIAYKYPGFGIRNYANSVKGRFTISSDNAQNTVFLQMTSLAASDTATYFCARGARYRHDDYGALNLWGPGTLVTVSS VL: DIVMTQTPPSVSAAVGGTVTINCQASQSVTNLLAWYQQKPGQPPKLLIYGASNLESGVPSRFRGSGSGTEFTLTISGMKAEDAATYYCQSGYYSANTFGAGTKVGIKR | 22.3 nM | 1.93 nM | 26.6 nM | 2.22 nM | 2.54 nM | 6.56 nM | 0.96 nM | 1.11 nM | – | – | –
4 | 38D5 hIgG1 (antibody, V domains shown) VH: EQQLLESGGGLVQPGGSLRLSCAASGIDFNNYGISWVRQAPGKGLEWIAYKYPGFGIRNYANSVKGRFTISSDNSKNTVYLQMNSLRAEDTAVYFCARGARYRHDDYGALNLWGPGTLVTVSS VL: DIQMTQSPSTLSASVGDRVTITCQASQSVTNLLAWYQQKPGKPPKLLIYGASNLESGVPSRFSGSGSGTEFTLTISSLQPDDFATYYCQSGYYSANTFGPGTKVDIK | – | – | – | – | – | 4.34 nM | 0.56 nM | 0.56 nM | 0.89 nM | 0.52 nM | –
5 | humanized 38D5 hIgG1 variant LC.1 (P43A) (antibody, V domains shown) VH: EQQLLESGGGLVQPGGSLRLSCAASGIDFNNYGISWVRQAPGKGLEWIAYKYPGFGIRNYANSVKGRFTISSDNSKNTVYLQMNSLRAEDTAVYFCARGARYRHDDYGALNLWGPGTLVTVSS VL: DIQMTQSPSTLSASVGDRVTITCQASQSVTNLLAWYQQKPGKAPKLLIYGASNLESGVPSRFSGSGSGTEFTLTISSLQPDDFATYYCQSGYYSANTFGPGTKVDIK | – | – | – | – | – | – | – | – | 1.5 nM | 0.85 nM | –
